The values that follow come from patent publication US20240131158A1 (Takeda / Millennium, published 2024).

For assay [1], the target named is T1, hTGFβR2-Fc (human, UniProt P37173 23-159).
T1 construct: Bought (RnD Systems); also called TGFbR2-Fc; human recombinant TGFbR2-Fc protein; not shown: Fc part of the bought fusion protein
Put plainly: ELISA, plate coated with hTGFβR2-Fc, human CAR-T supernatant, anti-flag HRP detection. The method, then: (§1) Supernatant from TGF-β modulating CAR-T cells were assayed by ELISA to detect anti-TGF-β and anti-TGFβR2 antibodies. Maxisorp 96 well plates were coated with recombinant human TGF-β […] or hTGFβR2-Fc (0.1 mg/ml; RnD System) in 100 μl coating buffer overnight at 4° C. Plates were washed with 1× wash buffer and blocked for 1 hour with reagent diluent at room temperature. CAR-T supernatant, recombinant TGFβR2-flag, or recombinant TGF-3-flag antibody was added and incubated for 2 hours at room temperature.
(§2) After another washing step, HRP-conjugated flag-tag antibody was added and incubated for 30 minutes at room temperature. Plates were washed and TMB substrate was added for 10-20 minutes. The reaction was stopped using Stop reagent and plates were read at 450 nm using a Pherastar Plate reader. ELISA using coated TGF-b detected high levels of TGF-b scFv VH-VL1 and TGF-b scFv VH-VL2 as compared to TGF-b scFv VL-VH using anti-flag tag HRP antibodies for binder detection (FIG. 3A). ELISA using coated TGFbR2-Fc detected high levels of TGFbR2 scFv VH-VL, TGFbR2 scFv VL-VH and hTGFbR2 VH1 from human CAR-T but was unable to detect mTGFbR2 VH1 (FIG. 3B). TGF-β binders and TGFβR2 binders were secreted by TGF-β modulating CAR-T cells and bind to their cognate antigen.
On the technique in general: ELISA stands for enzyme-linked immunosorbent assay.

For assay [2], the target named is T2, mouse recombinant TGFbR2-Fc protein (mouse, UniProt Q62312-1 24-184, limits assumed).
T2 construct: also called mouse TGFbR2; not shown: Fc part of the fusion protein
T2 sequence (looked up): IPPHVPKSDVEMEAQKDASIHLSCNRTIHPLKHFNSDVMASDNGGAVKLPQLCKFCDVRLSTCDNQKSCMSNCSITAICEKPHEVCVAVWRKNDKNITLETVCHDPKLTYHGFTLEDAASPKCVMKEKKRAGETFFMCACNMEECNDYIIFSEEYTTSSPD
Nature of the assay: ELISA, mouse recombinant TGFbR2-Fc as capture, mouse CAR-T supernatant, anti-flag HRP detection. The method, then: as §1, §2
Supernatant was harvested two days after transduction and frozen at −80′C until used for ELISA. ELISA was performed as described in Example 3. Human recombinant TGFbR2-Fc protein was used for capturing binders against human TGFbR2 and mouse recombinant TGFbR2-Fc protein was used for probing binding of TGFbR2 binders to mouse TGFbR2. Binding was detected using anti-flag HRP antibodies and the respective substrate. […] None of the binders from the tested supernatants bound to mouse TGFbR2 confirming specificity for human TGFBR2.

Assay [3] addresses T1, hTGFβR2-Fc. Nature of the assay: ELISA (figure legend). The method, then:
as §1
as §2, with “TGF-β binders and TGFβR2 binders were secreted by TGF-β modulating CAR-T cells and bind to their cognate antigen.” left out
(§3) Supernatant was harvested two days after transduction and frozen at −80′C until used for ELISA. […] Binding was detected using anti-flag HRP antibodies and the respective substrate. […]

The target of assay [4] is T1, hTGFβR2-Fc. Nature of the assay: ELISA, plate coated with hTGFβR2-Fc, CAR-T supernatant, anti-flag HRP detection. As for the experimental part:
as §1, §2

Assay [5] addresses T1, hTGFβR2-Fc. Nature of the assay: ELISA, human recombinant TGFbR2-Fc as capture, mouse CAR-T supernatant, anti-flag HRP detection. The method, then: as §1
as §2, with “TGF-β binders and TGFβR2 binders were secreted by TGF-β modulating CAR-T cells and bind to their cognate antigen.” left out
as §3

T1 sequence (P37173 23-159 limits assumed): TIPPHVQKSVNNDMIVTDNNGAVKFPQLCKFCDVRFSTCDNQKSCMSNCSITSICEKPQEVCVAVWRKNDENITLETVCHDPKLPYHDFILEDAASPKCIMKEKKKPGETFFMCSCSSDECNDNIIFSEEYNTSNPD

B1: hTGFbR2 VH1 (VHH)
VHH: EVQLLESGGGLVQPGGSLRLSCAASGFTFGTEQMWWVRQAPGKGLEFVSRIDSPGGRTYYADSVKGRFTISRDNSKNTLYLQMNSLRAEDTAVYYCAKRRPTGVSGTFYDYWGQGTLVTVSS
notes: Single domain VH; Secreted into CAR-T cell supernatant; Detected with anti-flag HRP
In the case of B1, the binding result in the assay with hTGFβR2-Fc [1] was “binds”.

B2: hTGFbR2 VH3 monomer (VHH)
VHH: EVQLLESGGGLVQPGGSLRLSCAASGFTFGTDQMWWVRQAPGKGLEFVSRIDSPGGRTYYANSVKGRFTISRDNSKNTLYLQMNSLRAEDTAVYYCAKRQPAGVSGKYVDYWGQGTLVTVSS
notes: Flag-tagged
For the molecule B2, the values for the binding result (in assay [2]; with hTGFβR2-Fc [3]) were “no binding” and “binds”, respectively.

B3: hTGFbR2 VH2 monomer (VHH)
VHH: EVQLLESGGGLVQPGGSLRLSCAASGSTFTEYRMWWVRQAPGKGLEWVSAIEPIGHRTYYANSVRGRFTISRDNSKNTLYLQMNSLRAEDTAVYYCAKQAPGEKWARRWDLDYWGQGTLVTVSS
notes: Flag-tagged (anti-flag HRP detection); also called TGFbR2 hVH2
For B3, the binding result in assay [2] is reported as “no binding”; with hTGFβR2-Fc [3], “binds”.

B4: hTGFbR2 VH2 G4S dimer (VHH)
chain: EVQLLESGGGLVQPGGSLRLSCAASGSTFTEYRMWWVRQAPGKGLEWVSAIEPIGHRTYYANSVRGRFTISRDNSKNTLYLQMNSLRAEDTAVYYCAKQAPGEKWARRWDLDYWGQGTLVTVSSGGGGSEVQLLESGGGLVQPGGSLRLSCAASGSTFTEYRMWWVRQAPGKGLEWVSAIEPIGHRTYYANSVRGRFTISRDNSKNTLYLQMNSLRAEDTAVYYCAKQAPGEKWARRWDLDYWGQGTLVTVSS
notes: Flag-tagged; also called hTGFbR2-VH2 dimer
As to B4, the binding result in assay [2] is “no binding”.

B5: hTGFbR2 VH3 G4S dimer (VHH)
chain: EVQLLESGGGLVQPGGSLRLSCAASGFTFGTDQMWWVRQAPGKGLEFVSRIDSPGGRTYYANSVKGRFTISRDNSKNTLYLQMNSLRAEDTAVYYCAKRQPAGVSGKYVDYWGQGTLVTVSSGGGGSEVQLLESGGGLVQPGGSLRLSCAASGFTFGTDQMWWVRQAPGKGLEFVSRIDSPGGRTYYANSVKGRFTISRDNSKNTLYLQMNSLRAEDTAVYYCAKRQPAGVSGKYVDYWGQGTLVTVSS
notes: It is built here from its name (VH3 - G4S - VH3); Flag-tagged; also called hTGFbR2-VH3 dimer
As to B5, in assay [2], the binding result is given as “no binding”.

B6: mTGFbR2 VH1 (VHH)
VHH: EVQLLESGGGLVQPGGSLRLSCAASGFTFTTYGMGWVRQAPGKGLEWVSWIEKTGNKTYYADSVKGRFTISRDNSKNTLYLQMNSLRAEDTAVYYCAKARHIKVRSRDFDYWGQGTLVTVSS
notes: Single domain VH expressed in human CAR-T cells; Flag-tagged
For the molecule B6, the binding result with hTGFβR2-Fc [4] is on record as “no binding”.

B7: TGFbR2 scFv VH-VL (scFv)
scFv: QLQVQESGPGLVKPSETLSLTCTVSGGSISNSYFSWGWIRQPPGKGLEWIGSFYYGEKTYYNPSLKSRATISIDTSKSQFSLKLSSVTAADTAVYYCPRGPTMIRGVIDSWGQGTLVTVSSGGGGSGGGGSGGGGSEIVLTQSPATLSLSPGERATLSCRASQSVRSYLAWYQQKPGQAPRLLIYDASNRATGIPARFSGSGSGTDFTLTISSLEPEDFAVYYCQQRSNWPPTFGQGTKVEIK
notes: Secreted into CAR-T cell supernatant; Detected with anti-flag HRP; also called hTGFbR2 scFv VH-VL monomer; TGFbR2 scFv VH-VL monomer
As for B7, the binding result with hTGFβR2-Fc [5] is listed as “binds”; in assay [2] it was “no binding”.

B8: hTGFbR2 scFv VH-VL G4S dimer (scFv)
chain: QLQVQESGPGLVKPSETLSLTCTVSGGSISNSYFSWGWIRQPPGKGLEWIGSFYYGEKTYYNPSLKSRATISIDTSKSQFSLKLSSVTAADTAVYYCPRGPTMIRGVIDSWGQGTLVTVSSGGGGSGGGGSGGGGSEIVLTQSPATLSLSPGERATLSCRASQSVRSYLAWYQQKPGQAPRLLIYDASNRATGIPARFSGSGSGTDFTLTISSLEPEDFAVYYCQQRSNWPPTFGQGTKVEIKGGGGSQLQVQESGPGLVKPSETLSLTCTVSGGSISNSYFSWGWIRQPPGKGLEWIGSFYYGEKTYYNPSLKSRATISIDTSKSQFSLKLSSVTAADTAVYYCPRGPTMIRGVIDSWGQGTLVTVSSGGGGSGGGGSGGGGSEIVLTQSPATLSLSPGERATLSCRASQSVRSYLAWYQQKPGQAPRLLIYDASNRATGIPARFSGSGSGTDFTLTISSLEPEDFAVYYCQQRSNWPPTFGQGTKVEIK
notes: Built here from its name (scFv - G4S - scFv); Flag-tagged; also called TGFbR2 scFv VH-VL dimer
B8: the binding result in assay [2] is given as “no binding”.

B9: TGFbR2 scFv VL-VH (scFv)
scFv: EIVLTQSPATLSLSPGERATLSCRASQSVRSYLAWYQQKPGQAPRLLIYDASNRATGIPARFSGSGSGTDFTLTISSLEPEDFAVYYCQQRSNWPPTFGQGTKVEIKGGGGSGGGGSGGGGSQLQVQESGPGLVKPSETLSLTCTVSGGSISNSYFSWGWIRQPPGKGLEWIGSFYYGEKTYYNPSLKSRATISIDTSKSQFSLKLSSVTAADTAVYYCPRGPTMIRGVIDSWGQGTLVTVSS
notes: Secreted into CAR-T cell supernatant; Detected with anti-flag HRP
Take B9: in the assay with hTGFβR2-Fc [1], the binding result is “binds”.
